Source: patent US20180208648A1 (SCHOLAR ROCK, published 2018)

T1: human proGDF11 (human, UniProt O95390 25-407, biotinylated (NHS-PEG4-Biotin), site not stated)
T1 sequence: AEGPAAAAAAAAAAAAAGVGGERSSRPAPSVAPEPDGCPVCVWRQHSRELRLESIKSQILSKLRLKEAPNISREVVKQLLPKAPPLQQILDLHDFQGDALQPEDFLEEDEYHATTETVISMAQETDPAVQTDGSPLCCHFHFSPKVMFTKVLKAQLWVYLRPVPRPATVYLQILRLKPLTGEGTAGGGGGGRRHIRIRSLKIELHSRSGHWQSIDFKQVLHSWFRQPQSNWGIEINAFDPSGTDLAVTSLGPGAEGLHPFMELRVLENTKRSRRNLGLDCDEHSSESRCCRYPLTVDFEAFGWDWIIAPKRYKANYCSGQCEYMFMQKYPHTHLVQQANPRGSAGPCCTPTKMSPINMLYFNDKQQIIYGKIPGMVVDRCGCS

T2: human latent GDF11 (human, UniProt O95390 25-407, biotinylated, site not stated)
T2 construct: also called hu latent GDF11
T2 sequence: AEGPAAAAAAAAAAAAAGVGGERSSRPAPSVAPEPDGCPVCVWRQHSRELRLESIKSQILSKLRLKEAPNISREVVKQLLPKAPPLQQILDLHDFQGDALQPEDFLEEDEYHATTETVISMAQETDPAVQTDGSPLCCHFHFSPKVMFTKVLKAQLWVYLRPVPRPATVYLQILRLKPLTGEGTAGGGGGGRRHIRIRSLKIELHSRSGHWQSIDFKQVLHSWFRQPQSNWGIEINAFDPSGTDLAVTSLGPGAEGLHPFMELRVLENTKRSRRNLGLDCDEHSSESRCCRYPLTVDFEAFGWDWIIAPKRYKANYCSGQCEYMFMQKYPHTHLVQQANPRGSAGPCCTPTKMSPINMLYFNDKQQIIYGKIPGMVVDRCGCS

T3: murine proGDF11 (mouse, UniProt Q9Z1W4 25-405, biotinylated, site not stated)
T3 sequence: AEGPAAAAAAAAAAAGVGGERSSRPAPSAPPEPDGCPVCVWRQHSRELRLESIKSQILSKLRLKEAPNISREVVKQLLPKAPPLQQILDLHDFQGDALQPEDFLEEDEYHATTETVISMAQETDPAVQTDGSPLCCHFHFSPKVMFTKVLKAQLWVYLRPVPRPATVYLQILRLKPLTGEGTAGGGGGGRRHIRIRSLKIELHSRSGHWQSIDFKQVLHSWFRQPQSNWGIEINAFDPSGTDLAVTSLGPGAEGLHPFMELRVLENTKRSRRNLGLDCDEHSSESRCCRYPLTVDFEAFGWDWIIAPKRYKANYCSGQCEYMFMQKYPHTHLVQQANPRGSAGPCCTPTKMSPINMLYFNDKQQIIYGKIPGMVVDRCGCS

T4: human proActivin A (human, UniProt P08476 21-426, biotinylated (immobilized on streptavidin biosensors), site not stated)
T4 construct: also called human Activin A; Inhibin-beta A pro-protein
T4 sequence: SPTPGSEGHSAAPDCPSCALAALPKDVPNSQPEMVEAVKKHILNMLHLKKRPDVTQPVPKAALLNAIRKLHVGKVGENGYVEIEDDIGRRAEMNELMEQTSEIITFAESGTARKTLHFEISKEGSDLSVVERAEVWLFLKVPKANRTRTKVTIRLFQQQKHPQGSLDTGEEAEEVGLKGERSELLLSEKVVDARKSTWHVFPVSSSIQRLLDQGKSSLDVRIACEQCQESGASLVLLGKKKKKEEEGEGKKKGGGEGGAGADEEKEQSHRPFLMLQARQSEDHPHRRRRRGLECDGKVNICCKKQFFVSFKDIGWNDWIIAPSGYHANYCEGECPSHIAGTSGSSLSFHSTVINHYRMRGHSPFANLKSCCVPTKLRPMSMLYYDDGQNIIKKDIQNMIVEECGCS

T5: human proGDF8 (human, UniProt O14793 24-375, biotinylated, site not stated)
T5 construct: also called hu proGDF8; human proMyostatin
T5 sequence: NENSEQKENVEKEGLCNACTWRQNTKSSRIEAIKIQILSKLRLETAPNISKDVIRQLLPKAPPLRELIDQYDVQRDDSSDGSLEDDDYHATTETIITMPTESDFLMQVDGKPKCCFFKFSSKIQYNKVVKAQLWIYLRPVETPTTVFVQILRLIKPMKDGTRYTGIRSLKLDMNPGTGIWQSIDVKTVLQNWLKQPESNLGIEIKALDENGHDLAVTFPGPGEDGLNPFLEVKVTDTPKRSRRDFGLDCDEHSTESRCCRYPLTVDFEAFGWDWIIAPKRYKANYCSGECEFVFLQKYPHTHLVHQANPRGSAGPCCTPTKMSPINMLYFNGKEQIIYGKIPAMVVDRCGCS

T6: human prodomain GDF11 ARM8 (human, biotinylated, site not stated)
T6 construct: GDF11 prodomain having the GDF8 arm domain; also called human GDF11 ARM8 prodomain
T6 chain: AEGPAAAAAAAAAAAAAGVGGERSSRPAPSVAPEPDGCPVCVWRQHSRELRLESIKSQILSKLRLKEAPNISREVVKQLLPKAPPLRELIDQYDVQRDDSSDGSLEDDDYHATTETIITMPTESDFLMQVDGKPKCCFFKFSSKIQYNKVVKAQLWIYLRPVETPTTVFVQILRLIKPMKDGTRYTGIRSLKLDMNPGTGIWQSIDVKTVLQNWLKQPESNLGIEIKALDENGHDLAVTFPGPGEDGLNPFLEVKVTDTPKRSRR


Columns and labels:
human proGDF11 [1] = target: T1, human proGDF11; experiment: cell-based or functional assay
human latent GDF11 = target: T2, human latent GDF11; experiment: BLI (ForteBio Octet)
human proGDF11 [2] = target: T1, human proGDF11; experiment: BLI (ForteBio Octet)
human proGDF11 [3] = target: T1, human proGDF11; experiment: cell-based or functional assay; remark: listed apart in the source
murine proGDF11 = target: T3, murine proGDF11; experiment: cell-based or functional assay
human proGDF11 [4] = target: T1, human proGDF11; experiment: cell-based or functional assay; remark: listed apart in the source
human proActivin A = target: T4, human proActivin A; experiment: BLI (ForteBio Octet QKe), antigen on streptavidin biosensor, antibody in solution
human proGDF8 = target: T5, human proGDF8; experiment: ELISA, biotinylated antigen on neutravidin plate
From the text: (§1) Candidate clones were converted to human IgG1 format. Full-length IgG antibodies were further characterized by ELISA for binding to the human and murine pro- and latent-forms of myostatin and GDF11. Antibodies were also screened for binding to the Myostatin prodomain (SEQ ID NO: 85), proTGFDβ1 (human and murine), the mature growth factor of Myostatin (SEQ ID NO: 89), the GDF11 mature growth factor (SEQ ID NO: 90), and proActivin A (SEQ ID NO: 84). Chimeric constructs which swapped portions of the prodomains of Myostatin and GDF11 were designed and produced. For example proGDF11 arm8 (SEQ ID NO: 112) refers to GDF11 having the GDF8 arm domain, and prodomain GDF11 arm8 (SEQ ID NO: 114) refers to the GDF11 prodomain having the GDF8 arm domain. These chimeric proteins were assayed for interaction with screening antibodies by ELISA and allowed for the assessment of binding of antibodies to the ARM or straight jacket portions of the GDF11 prodomain complex. Antibodies were selected based on their cross-reactivity with pro- and latent human and murine GDF11, with no interactions with GDF8, Activin, or TGFβ proteins. Activin A is a homodimer of inhibin-beta A subunits. For example, Inhibin-beta A can heterodimerize with other proteins to produce different Activin proteins.
(§2) Enzyme-linked immunosorbent assay (ELISA) analysis is carried out to assess antibody binding. 96-well ELISA assay plates are coated with neutravidin, a deglycosylated version of streptavidin with a more neutral pH. Target proteins are expressed with or without histidine (His) tags and subjected to biotinylation. Biotinylated target proteins are incubated with neutravidin-coated ELISA assay plates for two hours at room temperature and unbound proteins are removed by washing three times with wash buffer (either 25 mM Tris, 150 mM NaCl, 0.05% TWEEN®-20, or 20 mM Hepes pH 7.5, 500 mM NaCl, 0.05% TWEEN®-20). Primary antibodies being tested are added to each well and allowed to incubate at room temperature for 1 hour or more. Unbound antibody is then removed by washing three times with wash buffer. Secondary antibodies capable of binding to primary antibodies being tested and conjugated with detectable labels are then incubated in each well for 30 minutes at room temperature. Unbound secondary antibodies are removed by washing three times with wash buffer.

[5] = target: T6, human prodomain GDF11 ARM8; experiment: ELISA, biotinylated antigen on neutravidin plate
From the text: as §1, §2

EC50, proGDF11 activation assay at 50 nM proGDF11 (human proGDF11 [1]) [nM] | Kd (human latent GDF11) [nM] | Kd (human proGDF11 [2]) [nM] | Human proGDF11 % Inhibition (proGDF11 activation assay, CAGA luciferase reporter in 293T cells) (human proGDF11 [3]) [%] | Murine proGDF11 % inhibition (proGDF11 activation assay, CAGA luciferase reporter in 293T cells) (murine proGDF11) [%] | EC50 (inhibition of proGDF11 activation; CAGA luciferase reporter in 293T cells after overnight proteolysis) (human proGDF11 [4]) [nM] | binding result (human proActivin A) | binding result (human proGDF8) | binding result [5] | Binder
30.1 | < 0.001 | < 0.001 | 96 | 90 | ~30.3 | no binding (tested: 50 µg/mL) | – | – | GDF11 Inh-5 (antibody, V domains shown, also called Clone GDF11 Inh-5) VH: EVQLVQSGAEVKKPGASVKVSCKASGYTFTGYYIYWVRQAPGQGLEWMGWIRPNSGDTNYAQKFQDRLTMTRDTSISTAYMELSRLRSDDTAVYYCAGNYDILTGYQAPLGYWGQGALVTVSS VL: DIVLTQSPATLSVSPGERATLSCRASQRVISNYLAWYQQKPGQAPRLLIYGASSRATGIPDRFSGSGSGTDFTLSISRLEPEDFAVYYCQHYGPFGGGTKVEIKR
– | – | 0.75 | 77 | 63 | – | – | no binding | no binding | GDF11 Inh-6 (antibody, V domains shown, also called Clone GDF11 Inh-6) VH: QVQLQESGPGLVKPSETLSLTCTVSGGSISSSSYYWGWVRQPPGKGLEWIGEIYHSGSTNYNPSLKSRVTISVDTSKNQFSLKLSSVTAADTAVYYCARVGTSWEYYFDYWGQGTLVTVSS VL: DIQMTQSPASLSASVGDRVTITCRTSQHIINYLNWYQQRPGKAPNLLIYKASTLQSGVPSRFSGSGSGTHFTLTISSLQPEDFATYYCQQYQSYPITFGQGTRLEIKR
